Results as given in article PMC5548801, “Characterization of C-terminal structure of MinC and its implication in evolution of bacterial cell division” (Scientific Reports, 2017).
Each block holds one molecule with its values, some of them ahead of it.

Legend:
[1] = molecular target: MBP-EcMinC-Aahelix3 (E. coli | A. aeolicus) (UniProt P18196); test: SEC-MALS; MALLS and SEC (Fig. S4)
[2] = molecular target: the molecule itself; test: crystal structure; hanging-drop vapor diffusion at 20 °C, 0.1 M Tris-HCl pH 7.2, 0.44 M sodium/potassium tartrate; 3.0 Å; dimer in the asymmetric unit
[3] = molecular target: the molecule itself; test: SEC-MALS; MALLS and SEC (Fig. S4)

- stoichiometry N [1]: 2
Molecule: MBP-EcMinC-Aahelix3 (from UniProt P18196 1-231; O67034 82-201)

B1: C-terminal domain of MinC from Escherichia coli (EcMinCCTD) (domain or fragment, E. coli)
chain: PVTKTRLIDTPVRSGQRIYAPQCDLIVTSHVSAGAELIADGNIHVYGMMRGRALAGASGDRETQIFCTNLMAELVSIAGEYWLSDQIPAEFYGKAARLQLVENALTVQPLN
notes: MinC, E. coli K12; C-terminal domain, a degradation fragment of ~13 kD of full-length MinC-6xHis; residues 122-231 are named for the superposition with TmMinCCTD; Crystals grew from full-length MinC-6xHis (pET22b-MinC) that was degraded over 3-6 weeks; source: E. coli BL21(DE3), full-length MinC-6xHis purified (Ni-agarose, SEC); degraded to the C-terminal domain during crystallization; not shown: …
- binding result [2]: binds

B2: MBP-EcMinC (natural protein, E. coli, UniProt P18196 1-231, looked up)
chain: MSNTPIELKGSSFTLSVVHLHEAEPKVIHQALEDKIAQAPAFLKHAPVVLNVSALEDPVNWSAMHKAVSATGLRVIGVSGCKDAQLKAEIEKMGLPILTEGKEKAPRPAPTPQAPAQNTTPVTKTRLIDTPVRSGQRIYAPQCDLIVTSHVSAGAELIADGNIHVYGMMRGRALAGASGDRETQIFCTNLMAELVSIAGEYWLSDQIPAEFYGKAARLQLVENALTVQPLN
notes: called full-length EcMinC; Modified pET-28b with MBP in place of the N-terminal His-tag; source: E. coli BL21(DE3), purified (Ni-agarose, SEC); not shown: MBP, N-terminal, kept
- stoichiometry N [3]: 2
